experiment: soluble on expression in E. coli; label from the status in PepcDB or PDB records

Soluble on expression in E. coli, not soluble:
MGSDKIHHHHHHMAKKHRKESLDALFREKVLLEMLKIAGVGMWTYSTETGRLRYIGFADTIHRHDELQYVDPADYLKLMNGEDLQTVTQFMADIHAGRPPQEGIRYKIHGNGEDFYLENHVVTCQPLGNGFYYLKGYVKNITAQVMEANRLCIEKERTEQADRLRSAFFAHVSRELRGPLNRIEELASQMVHAESVEEREECFHRIQENRRMAMKIADALHAVSQLPVSTYEPYHSPMQLCLIYRDLLMENGYSHNPEDGEQEENANFLSLLFS, MGSDKIHHHHHHMAKLDDATLAQLFTEARSHNGWNPEPLPESVLRELYALTKFGPTAANGSPARFYFVTSAEAKERLAKLSSGSNGPKIMQAPCTVIIGYDLDFPQTLPKLFPHAPGAKDWFNDPVAKEWCALRNSSLQGGYFMIGARALGLDVGPMSGFDNAAVDAEFFAGTNIKSNFIVSIGHGTDEGLFPRNPRLDFDEAAKIL, MGSDKIHHHHHHMAKNKTAYVCSECGQDFPRWQGQCNACGEWNTISEVRLAPAKSSAGSVAGYAGAVGGGSKKLSEVEEFEAKKLLTGIGELDRVLCGGLTTGSVNIISGDPGAGKTTILSDLVSRMSQLMPSLYCTAEESLSQFKNRVNRLRLDCNEENLYLMAETNVEAIIAELEAKQVKFAVIDSIQAVVTDLANGSPGSPSQVKGSAQALTQYCKQNNVTMFLVAHVNKNNETAGPQTLIHIVDCLTHLECNDGQVRTLRANKNRFGDVDTVGIFRMTERGMLSVDNPSEIFLSGSTTESPGAAITCIRKGNRNLLLEIQCLTTEAEGEFPQRVCVGLNMNRIKMLTGILRKHTRTKIYHDTYFNLVGGLKIDESETCIDLALVAALLSSLNEFVVPRTTCIMGELSLNGDVRPIDSGVPRVKEAVQHGFTEIFIPFRNYHKSMEGLGAKINPIKTIHELLELIC, MGSDKIHHHHHHMAKTIKLILSDIDGTILDNNHQVDAHLRDTITELKKESIPFVLASARSPHGMFPIAQELNLGANPIACYNGALIVEGNKEHYQTLIEHGLSKADVKKIVALIKKQFPHISINFYSGGDWIVEEIDQWVQIEADITKESPDIRNFDTLLTDDAIPIHKLLLIANAQAIQEFFTYLKRVNFEDASFYLSKDNYLEVTSQSVSKENALLEIAKYYDISLSQTMAIGDNYNDIPMLKLAGLGVAMANAPQAVKNEADIETVSNNDNGVSKVIEDYVLI, MGSDKIHHHHHHMAKTIRDESTASAYWAAVNTFCALKDVHVIADAPVGCYNLAGVAVMDYTDAIPYLENLTPTSLTEREISSSGSSQIVQETIEKLMGSGKQLILVSSAESEMIGSDHQHMLAMKYPSVRFFASDSLGENEWQGRDRALAWLFDQFDDGQPSQIEPGTVSIIGPTYGCFNSPADLAEVKRLVTGAGGRVAHVYPFESKAAEITKLKNSAAIVVMYREFGAALAEKLGRPVLYAPFGIEETDRFIGKIGRLCGTPEQATRFIAEEKRTTLSPVWDLWRGPQSEWFPTIRFGVVASKSYADGIKHVLGDELGMQCLFSLDSAEVDNNAVRKEIVQKQPQFLYGRMPDKIYLAEADAKSRFIPAGFPGPIVRRALGTPFMGHSGVVWLVQEIVNALYDTLFNFLPITRRQQAAAPTKPLKWTPEANAILDGIVRKAPFISQISFGRELKRKAENLAASRGADTVTPDILQQLG, MGSDKIHHHHHHMAKTPANKNDQTKDGRFEEALWDAANKLRGSVESSEYKHIVLSLIFLKFISDTFEQQRQKLIDTGYEKHIDMVQAYTKDNVFYLPAESRWSFIQQNAKQEDIALKIDTALSTIEKTNQSLKGALPDNYFSRLGLTASKLAALIDVVNNIDTIGNPEEDTVGRVYEYFLGKFAATEGKGGGEFYTPKSVVNLIAEMVEPYQGKIYDPCCGSGGMFVQSIKFIESHHGNTKDVSIYGQEYTSTTYKLAKMNLAIRGISSNLGDVAADTFFKDQHEDLKADFIMANPPFNQKDWRASDELVDDPRWAGYPTPPTGNANYAWILHMISKLSEHGTAGFVLANGSMSTTTSGEGEIRQQIIENDLVDCMIALPGQLFYTTQIPVCLWFINKDKQAKSADSKARGLRNRSGETLFIDARAIGSMISRTNKELTKDDIEAIAKTYHAWRGEKEAGGYEAYTDEAGYCKSATLDDMKANDYVLTPGRYVGAAAIEDDGISFETKMLELSQTLYAQMQASEKLDATIRQNLEVLGYGE, MGSDKIHHHHHHMAKVVISGYYGFDNLGDEAVLFSILKTLRELQIGIRIEVLSNNPSQTAEIYRVTAANRWKLGEVYHALKDSDMLISGGGSLLQDVTGWKSLVYYLGVIWLARFLGKPVFFYAQGIGPVNTPLGRLLMRWIVNKVNYITVRDESSRQDLAEMKISRPPVEVTADPVLGLEEKYVDKKIGQAILQEVGLDLSIERKMVGISVREWQGLGEYKEVVAELCDKLCRVGYQVVFLPMHSPDDLETSREVAAMMEQPAVVLEGHYSVVEMASLIANMDLLIGMRLHALILAAVMHVPPVAISYDPKIDRFMGLLGKTAATPVDRPQFAELWQAVEEIIYEPWQVREELMQQVEPLRQRAQASAVLGLKVLEKSLHNGPAAKYL, MGSDKIHHHHHHMALVKCQSLNEIPMTATNHMDTSVQHVDIAIVGGAMAGATLALALARLSLSAARPLSIALIEAHLPDKQHPGFDARSIAIAHGSIFELSRLGLWPKLAHLGTAIENIHVSDRGHFGMTELNAAQFHLDALGQVVELERVGQVLFNELNKSEVKLYCPAKLAQVEPAVEGHTLVLDTGKRLKAKLVVAADGLQSKVRSSFDLPVTQVAFEQTAIIANIQTDKPHQHLAYERFTQTGPLALLPMADSQGKPRLSLVWALDDARAKQMQTAPKAEFLAALQQAFGYRAGTFIDVSARHAYPLNLSYMPRPIHHRCVFIGNAAQTLHPIAGQGFNLGLRDVVSLLEVLKTALDQGDDIGSAAVTHAYLNAREHDRNSTIRNIEFLVRGFSNQYWPMALGRNLGLRLLSWFPPLKTPVAQKAMGWK, MGSDKIHHHHHHMAMTTEFANEITDVAKAIYEYAELGSSEYKSSSYLVEAFKRHGFQVDFPYLGMKTAFKARYFNGKPMVGLLAEYDALPNGHSCGHDLIAAWAFGTAIRLKDEFGISVTVFGTPSEEGIGEYAGSKAKFAQSGAFSDVDYVIGMHPDDRWAVGSTSLADLTIEAQFIGKSSHLLSPDYGINALDPLVESYVALSNFRRSVPNSKYPVIGMIVKEGGRASNVIPDKASMEIDIRAKKKADLAGFVDQIERILKMEGEMHYCKLNINEVTPIYDEYKSNRVIDSLLEEECQKHAVNPFNVDRSGEEPMGSTDEANVSQVIPTGHLDVKIVDPGIPAHTDEFRIAADPSRSGKTLLKAIDITVETIKTIWQDKKFMNKIKEEFKK, MGSDKIHHHHHHMANFAYEVFSTVVAQHTFYQAAATLNVTPSAVSHSINQLEKELGFPLFIRNRSGVELTSDGRQVLPYVQEILNTESNLRQVADNIQGLHSGSVRIGGFSSVCINWLPRIIREFNHKYPDIKISVMQGNFNEITNWAKIGTIDIGFTSMPVNENLLVHSLINDPIYCVTPADFIPENGEFITTDDVADKNFILQQSDYDRDTKLALDHYHVTNNFLRFSIDDQSIISMVESGLGMGILPQLALRKLTGDVNTFSFAEPYNREIALVANKTQAAAPSTAIMIRAIKQFLTKEYPDQMLWQ, MGSDKIHHHHHHMANSIPSGGNAFALPFAGSRHQFISATCTPDTFSDCLSQSLPPSSNEQAPLGVLRLVVAVSNQKQIGTVLEQLTKDFQALLSRAEVVVQPPFSGQVQISAWLVDTAAIADAPAVIGSPAALQWLFSASNAHALDDTQVSPAFSRQFYDGLESAHAQGHMPDDLLRTWIYIGGITQGPHDETRYQRVNAARQDAFREVSIGMGALCSPFPASTGIGTHGSSLTLGMLSCKIRSGMRVVALENRRQTSAFQYPKEESLIAPLFSRAVAILGDAQAMVFVSGTASIIGAKSVHVGNIEQQTRQTLENINNLLSARLLSDYDCYPATSGLESIVSYTVYIKRREDITVVRAVCAALLPERAVATFVQADVCRTELLVEIEAVAVMPE

— the DeepSol protein solubility set
